{"source": "the Human Domainome abundance scans (Beltran et al. 2025)", "parents": {"B1": {"name": "Zinc finger homeobox protein 4, residues 2086 to 2141; numbered along this chain, Q86UP3 (parent)", "chain": "RPRTRITDDQLKILRAYFDINNSPSEEQIQEMAEKSGLSQKVIKHWFRNTLFKERQ"}}, "note": "± gives the uncertainty stated by the source."}
{"variants_of": "B1", "experiment": "abundance fitness (aPCA) (normalised: wild type 0, dead -1); higher = more abundant; growth selection in yeast, the domain comes from the species named", "settings": "Homo sapiens"}
{"variant": "RPRTRITDDQLKILRYYFDINNSPSEEQIQEMAEKSGLSQKVIKHWFRNTLFKERQ", "abundance fitness": "-0.013 ± 0.095"}
{"variant": "RPRTRITDDQLKILRDYFDINNSPSEEQIQEMAEKSGLSQKVIKHWFRNTLFKERQ", "abundance fitness": "-0.029 ± 0.11"}
{"variant": "RPRTRITDDQLKILRVYFDINNSPSEEQIQEMAEKSGLSQKVIKHWFRNTLFKERQ", "abundance fitness": "-0.211 ± 0.089"}
{"variant": "RPRTRITDDQLKILRKYFDINNSPSEEQIQEMAEKSGLSQKVIKHWFRNTLFKERQ", "abundance fitness": "-0.129 ± 0.18"}
{"variant": "RPRTRITDDQLKILRPYFDINNSPSEEQIQEMAEKSGLSQKVIKHWFRNTLFKERQ", "abundance fitness": "-0.028 ± 0.082"}
{"variant": "RPRTRITDDQLKILREYFDINNSPSEEQIQEMAEKSGLSQKVIKHWFRNTLFKERQ", "abundance fitness": "0.178 ± 0.14"}
{"variant": "RPRTRITDDQLKILRQYFDINNSPSEEQIQEMAEKSGLSQKVIKHWFRNTLFKERQ", "abundance fitness": "0.03 ± 0.11"}
{"variant": "RPRTRITDDQLKILRSYFDINNSPSEEQIQEMAEKSGLSQKVIKHWFRNTLFKERQ", "abundance fitness": "0.129 ± 0.068"}
{"variant": "RPRTRITDDQLKILRTYFDINNSPSEEQIQEMAEKSGLSQKVIKHWFRNTLFKERQ", "abundance fitness": "-0.124 ± 0.083"}
{"variant": "RPRTRITDDQLKILRGYFDINNSPSEEQIQEMAEKSGLSQKVIKHWFRNTLFKERQ", "abundance fitness": "0.035 ± 0.13"}
{"variant": "RPRTRITDDQLKILRHYFDINNSPSEEQIQEMAEKSGLSQKVIKHWFRNTLFKERQ", "abundance fitness": "0.108 ± 0.083"}
{"variant": "RPRTRITDDQLKILRMYFDINNSPSEEQIQEMAEKSGLSQKVIKHWFRNTLFKERQ", "abundance fitness": "0.124 ± 0.12"}
{"variant": "RPRTRITDDQLKILRRYFDINNSPSEEQIQEMAEKSGLSQKVIKHWFRNTLFKERQ", "abundance fitness": "0.096 ± 0.076"}
{"variant": "RPRTRITDDQLKILRCYFDINNSPSEEQIQEMAEKSGLSQKVIKHWFRNTLFKERQ", "abundance fitness": "-0.075 ± 0.077"}
{"variant": "RPRTRITDDQLKILRIYFDINNSPSEEQIQEMAEKSGLSQKVIKHWFRNTLFKERQ", "abundance fitness": "-0.071 ± 0.11"}
{"variant": "RPRTRITDDQLKILRNYFDINNSPSEEQIQEMAEKSGLSQKVIKHWFRNTLFKERQ", "abundance fitness": "0.16 ± 0.093"}
{"variant": "RPRTRITDDQLKILRLYFDINNSPSEEQIQEMAEKSGLSQKVIKHWFRNTLFKERQ", "abundance fitness": "-0.051 ± 0.071"}
{"variant": "RPRTRITDDQLKILRAYWDINNSPSEEQIQEMAEKSGLSQKVIKHWFRNTLFKERQ", "abundance fitness": "-0.142 ± 0.086"}
{"variant": "RPRTRITDDQLKILRAYADINNSPSEEQIQEMAEKSGLSQKVIKHWFRNTLFKERQ", "abundance fitness": "-0.026 ± 0.073"}
{"variant": "RPRTRITDDQLKILRAYTDINNSPSEEQIQEMAEKSGLSQKVIKHWFRNTLFKERQ", "abundance fitness": "0.014 ± 0.1"}
{"variant": "RPRTRITDDQLKILRAYGDINNSPSEEQIQEMAEKSGLSQKVIKHWFRNTLFKERQ", "abundance fitness": "-0.184 ± 0.065"}
{"variant": "RPRTRITDDQLKILRAYQDINNSPSEEQIQEMAEKSGLSQKVIKHWFRNTLFKERQ", "abundance fitness": "0.011 ± 0.11"}
{"variant": "RPRTRITDDQLKILRAYCDINNSPSEEQIQEMAEKSGLSQKVIKHWFRNTLFKERQ", "abundance fitness": "-0.179 ± 0.091"}
{"variant": "RPRTRITDDQLKILRAYRDINNSPSEEQIQEMAEKSGLSQKVIKHWFRNTLFKERQ", "abundance fitness": "-0.018 ± 0.067"}
{"variant": "RPRTRITDDQLKILRAYIDINNSPSEEQIQEMAEKSGLSQKVIKHWFRNTLFKERQ", "abundance fitness": "-0.313 ± 0.1"}
{"variant": "RPRTRITDDQLKILRAYDDINNSPSEEQIQEMAEKSGLSQKVIKHWFRNTLFKERQ", "abundance fitness": "-0.227 ± 0.098"}
{"variant": "RPRTRITDDQLKILRAYNDINNSPSEEQIQEMAEKSGLSQKVIKHWFRNTLFKERQ", "abundance fitness": "-0.268 ± 0.1"}
{"variant": "RPRTRITDDQLKILRAYPDINNSPSEEQIQEMAEKSGLSQKVIKHWFRNTLFKERQ", "abundance fitness": "-0.224 ± 0.098"}
{"variant": "RPRTRITDDQLKILRAYEDINNSPSEEQIQEMAEKSGLSQKVIKHWFRNTLFKERQ", "abundance fitness": "-0.305 ± 0.094"}
{"variant": "RPRTRITDDQLKILRAYSDINNSPSEEQIQEMAEKSGLSQKVIKHWFRNTLFKERQ", "abundance fitness": "-0.142 ± 0.078"}
{"variant": "RPRTRITDDQLKILRAYKDINNSPSEEQIQEMAEKSGLSQKVIKHWFRNTLFKERQ", "abundance fitness": "-0.044 ± 0.15"}
{"variant": "RPRTRITDDQLKILRAYYDINNSPSEEQIQEMAEKSGLSQKVIKHWFRNTLFKERQ", "abundance fitness": "0.033 ± 0.11"}
{"variant": "RPRTRITDDQLKILRAYMDINNSPSEEQIQEMAEKSGLSQKVIKHWFRNTLFKERQ", "abundance fitness": "-0.043 ± 0.1"}
{"variant": "RPRTRITDDQLKILSAYFDINNSPSEEQIQEMAEKSGLSQKVIKHWFRNTLFKERQ", "abundance fitness": "-0.012 ± 0.082"}
{"variant": "RPRTRITDDQLKILQAYFDINNSPSEEQIQEMAEKSGLSQKVIKHWFRNTLFKERQ", "abundance fitness": "0.022 ± 0.093"}
{"variant": "RPRTRITDDQLKILYAYFDINNSPSEEQIQEMAEKSGLSQKVIKHWFRNTLFKERQ", "abundance fitness": "-0.2 ± 0.11"}
{"variant": "RPRTRITDDQLKILEAYFDINNSPSEEQIQEMAEKSGLSQKVIKHWFRNTLFKERQ", "abundance fitness": "-0.098 ± 0.089"}
{"variant": "RPRTRITDDQLKILTAYFDINNSPSEEQIQEMAEKSGLSQKVIKHWFRNTLFKERQ", "abundance fitness": "-0.065 ± 0.088"}
{"variant": "RPRTRITDDQLKILNAYFDINNSPSEEQIQEMAEKSGLSQKVIKHWFRNTLFKERQ", "abundance fitness": "-0.07 ± 0.15"}
{"variant": "RPRTRITDDQLKILAAYFDINNSPSEEQIQEMAEKSGLSQKVIKHWFRNTLFKERQ", "abundance fitness": "-0.215 ± 0.076"}
{"variant": "RPRTRITDDQLKILCAYFDINNSPSEEQIQEMAEKSGLSQKVIKHWFRNTLFKERQ", "abundance fitness": "-0.414 ± 0.13"}
{"variant": "RPRTRITDDQLKILDAYFDINNSPSEEQIQEMAEKSGLSQKVIKHWFRNTLFKERQ", "abundance fitness": "-0.168 ± 0.11"}
{"variant": "RPRTRITDDQLKILHAYFDINNSPSEEQIQEMAEKSGLSQKVIKHWFRNTLFKERQ", "abundance fitness": "-0.337 ± 0.15"}
{"variant": "RPRTRITDDQLKILMAYFDINNSPSEEQIQEMAEKSGLSQKVIKHWFRNTLFKERQ", "abundance fitness": "0.138 ± 0.093"}
{"variant": "RPRTRITDDQLKILGAYFDINNSPSEEQIQEMAEKSGLSQKVIKHWFRNTLFKERQ", "abundance fitness": "-0.093 ± 0.07"}
{"variant": "RPRTRITDDQLKILLAYFDINNSPSEEQIQEMAEKSGLSQKVIKHWFRNTLFKERQ", "abundance fitness": "-0.081 ± 0.072"}
{"variant": "RPRTRITDDQLKILKAYFDINNSPSEEQIQEMAEKSGLSQKVIKHWFRNTLFKERQ", "abundance fitness": "0.018 ± 0.093"}
